# Test results published in publication PMC2879511 (Nucleic Acids Research, 2010).
# T1: Med4 (recombinant) (S. cerevisiae, UniProt Q12343 1-284)
# T1 sequence: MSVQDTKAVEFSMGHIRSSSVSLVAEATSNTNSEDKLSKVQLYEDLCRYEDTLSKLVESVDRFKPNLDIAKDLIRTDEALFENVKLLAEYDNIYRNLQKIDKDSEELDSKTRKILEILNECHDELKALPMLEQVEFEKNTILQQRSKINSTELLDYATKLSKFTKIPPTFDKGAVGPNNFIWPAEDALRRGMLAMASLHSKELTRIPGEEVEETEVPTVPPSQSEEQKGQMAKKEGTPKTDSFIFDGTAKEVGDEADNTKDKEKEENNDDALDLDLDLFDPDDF
# B1: 4-subunit middle module complex Med7/10/21/31-His6 (complex)
# chain 1: MSNDPGNEVSSLYPPPPPYVKFFTQSNLEKLPKYKEKKAASAKQTAPNNSNGGSEEEITCALDYLIPPPMPKNQQYRAFGSIWQVKDQLPDLESMGLTQLYKKSTENESTNYQYKIQELRKLLKSLLLNYLELIGVLSINPDMYERKVENIRTILVNIHHLLNEYRPHQSRESLIMLLEEQLEYKRGEIREIEQVCKQVHDKLTSIQDTLRTGSQSPPSSSQ
# chain 2: MNGNSTNNEQLQQELATTQDQVASIIESFVELGVSIYDFPGTPEATKGMITNLQRNVDRLYKLNVRSNDPQSSLSKVDIPLEVVQYIEDGRNPDIYTREFVEAIRRSNQYQRGKMHGLKQLRDSLADKIVDEFPELKEPVEDIIKRTSPIDNVSNTH
# chain 3: MTDRLTQLQICLDQMTEQFCATLNYIDKNHGFERLTVNEPQMSDKHATVVPPEEFSNTIDELSTDIILKTRQINKLIDSLPGVDVSAEEQLRKIDMLQKKLVEVEDEKIEAIKKKEKLLRHVDSLIEDFVDGIANSKKST
# chain 4: […]
# B2: Med21 (recombinant) (natural protein)
# chain: MTDRLTQLQICLDQMTEQFCATLNYIDKNHGFERLTVNEPQMSDKHATVVPPEEFSNTIDELSTDIILKTRQINKLIDSLPGVDVSAEEQLRKIDMLQKKLVEVEDEKIEAIKKKEKLLRHVDSLIEDFVDGIANSKKST
# B3: Med7 (recombinant) (natural protein)
# chain: MSNDPGNEVSSLYPPPPPYVKFFTQSNLEKLPKYKEKKAASAKQTAPNNSNGGSEEEITCALDYLIPPPMPKNQQYRAFGSIWQVKDQLPDLESMGLTQLYKKSTENESTNYQYKIQELRKLLKSLLLNYLELIGVLSINPDMYERKVENIRTILVNIHHLLNEYRPHQSRESLIMLLEEQLEYKRGEIREIEQVCKQVHDKLTSIQDTLRTGSQSPPSSSQ
# B4: Med10 (recombinant) (natural protein)
# chain: MNGNSTNNEQLQQELATTQDQVASIIESFVELGVSIYDFPGTPEATKGMITNLQRNVDRLYKLNVRSNDPQSSLSKVDIPLEVVQYIEDGRNPDIYTREFVEAIRRSNQYQRGKMHGLKQLRDSLADKIVDEFPELKEPVEDIIKRTSPIDNVSNTH
# B5: StrepII-tagged Med1 (natural protein)
# chain: MVEGDSYVETLDSMIELFKDYKPGSITLENITRLCQTLGLESFTEELSNELSRLSTASKIIVIDVDYNKKQDRIQDVKLVLASNFDNFDYFNQRDGEHEKSNILLNSLTKYPDLKAFHNNLKFLYLLDAYSHIESDSTSHNNGSSDKSLDSSNASFNNQGKLDLFKYFTELSHYIRQCFQDNCCDFKVRTNLNDKFGIYILTQGINGKEVPLAKIYLEENKSDSQYRFYEYIYSQETKSWINESAENFSNGISLVMEIVANAKESNYTDLIWFPEDFISPELIIDKVTCSSNSSSSPPIIDLFSNNNYNSRIQLMNDFTTKLINIKKFDISNDNLDLISEILKWVQWSRIVLQNVFKLVSTPSSNSNSSELEPDYQAPFSTSTKDKNSSTSNTEPIPRSNRHGSVVEASRRRRSSTNKSKRPSITEAMMLKEEGLQQFNLHEILSEPAIEEENGDSIKEHSTTMDGANDLGFTASVSNQENAGTDIVMEDHGVLQGTSQNYGTATADDADIEMKDVSSKPSKPESSVLQLIVSEDHIILDTISECNLYDDVKCWSKFIEKFQDIVS
# B6: Med9 (recombinant) (natural protein)
# chain: MNLQNNVLNQIHQILLPTNPTLDKPNAEATKEEFSSAENRDEKDYLTNQQPKNLSTPSTSSNGEFIPHIFYSLHQIRKDPNNLSNQLETLTGSIRHRLKLCKSLISENEDTKDLLSKSPSEWQDIIHQREQELQIKRDVLDDLYRKLQR
# B7: 6-subunit middle module complex Med4/7/9/10/21/31 (complex)
# chain 1: MSVQDTKAVEFSMGHIRSSSVSLVAEATSNTNSEDKLSKVQLYEDLCRYEDTLSKLVESVDRFKPNLDIAKDLIRTDEALFENVKLLAEYDNIYRNLQKIDKDSEELDSKTRKILEILNECHDELKALPMLEQVEFEKNTILQQRSKINSTELLDYATKLSKFTKIPPTFDKGAVGPNNFIWPAEDALRRGMLAMASLHSKELTRIPGEEVEETEVPTVPPSQSEEQKGQMAKKEGTPKTDSFIFDGTAKEVGDEADNTKDKEKEENNDDALDLDLDLFDPDDF
# chain 2: MSNDPGNEVSSLYPPPPPYVKFFTQSNLEKLPKYKEKKAASAKQTAPNNSNGGSEEEITCALDYLIPPPMPKNQQYRAFGSIWQVKDQLPDLESMGLTQLYKKSTENESTNYQYKIQELRKLLKSLLLNYLELIGVLSINPDMYERKVENIRTILVNIHHLLNEYRPHQSRESLIMLLEEQLEYKRGEIREIEQVCKQVHDKLTSIQDTLRTGSQSPPSSSQ
# chain 3: MNLQNNVLNQIHQILLPTNPTLDKPNAEATKEEFSSAENRDEKDYLTNQQPKNLSTPSTSSNGEFIPHIFYSLHQIRKDPNNLSNQLETLTGSIRHRLKLCKSLISENEDTKDLLSKSPSEWQDIIHQREQELQIKRDVLDDLYRKLQR
# chain 4: MNGNSTNNEQLQQELATTQDQVASIIESFVELGVSIYDFPGTPEATKGMITNLQRNVDRLYKLNVRSNDPQSSLSKVDIPLEVVQYIEDGRNPDIYTREFVEAIRRSNQYQRGKMHGLKQLRDSLADKIVDEFPELKEPVEDIIKRTSPIDNVSNTH
# chain 5: MTDRLTQLQICLDQMTEQFCATLNYIDKNHGFERLTVNEPQMSDKHATVVPPEEFSNTIDELSTDIILKTRQINKLIDSLPGVDVSAEEQLRKIDMLQKKLVEVEDEKIEAIKKKEKLLRHVDSLIEDFVDGIANSKKST
# chain 6: […]
# B8: Med4/9 heterodimer (complex)
# chain 1: MSVQDTKAVEFSMGHIRSSSVSLVAEATSNTNSEDKLSKVQLYEDLCRYEDTLSKLVESVDRFKPNLDIAKDLIRTDEALFENVKLLAEYDNIYRNLQKIDKDSEELDSKTRKILEILNECHDELKALPMLEQVEFEKNTILQQRSKINSTELLDYATKLSKFTKIPPTFDKGAVGPNNFIWPAEDALRRGMLAMASLHSKELTRIPGEEVEETEVPTVPPSQSEEQKGQMAKKEGTPKTDSFIFDGTAKEVGDEADNTKDKEKEENNDDALDLDLDLFDPDDF
# chain 2: MNLQNNVLNQIHQILLPTNPTLDKPNAEATKEEFSSAENRDEKDYLTNQQPKNLSTPSTSSNGEFIPHIFYSLHQIRKDPNNLSNQLETLTGSIRHRLKLCKSLISENEDTKDLLSKSPSEWQDIIHQREQELQIKRDVLDDLYRKLQR
# Assays:
# [1] = target: the molecule itself; test: native MS
# [2] = target: B3; test: native MS
# [3] = target: T1, Med4 (recombinant); test: native MS
# [4] = target: 6-subunit complex Med4/7/9/10/21/31 of the coexpressed 7-subunit middle module (S. cerevisiae, UniProt Q12343;Q08278;P33308;Q06213;P47822;P38633); test: native MS
# [5] = target: T1, Med4 (recombinant); test: copurification after coexpression
# [6] = target: B1; test: native MS
binder,measurement,setting,value
B1,stoichiometry N,[1],2
B2,binding result,[2],binds
B3,binding result,[3],binds
B4,binding result,[2],binds
B5,stoichiometry N,[4],1
B6,binding result,[5],binds
B7,stoichiometry N,[1],2
B8,stoichiometry N,[6],1
